Patent US20120064090A1, “THERAPEUTIC AGENT FOR CANCER HAVING REDUCED SENSITIVITY TO MOLECULAR TARGET DRUG AND PHARMACEUTICAL COMPOSITION FOR ENHANCING SENSITIVITY TO MOLECULAR TARGET DRUG” (KRINGLE PHARMA INC., priority 2009, published 2012)

Experiments:
[1] = tested on: tumor formed of PC-9 and MRC-5 cells; assay: Xenograft tumor (PC-9 + MRC-5) transplanted into SCID mice; type: in vivo; conditions: PC-9 + MRC-5 s.c., days 4 to 16, gefitinib 25 mg/kg/day oral, antibody 5 mg/kg/day i.p., NK4 9 mg/kg/day i.p., FIG. 6
Description: SCID mice (female, 5 weeks old) were purchased from CLEA Japan.
100 μL of a cell suspension containing PC-9 (5×10^6 cells) and MRC-5 (5×10^6 cells) was subcutaneously inoculated from the back skin of each SCID mouse. Four days later, mice bearing a tumor exceeding 4 mm in diameter were randomly divided into 6 groups (5 mice per group) as shown in Table 1.
In gefitinib-treated groups (groups 4, 5 and 6 in Table 1), gefitinib (25 mg/kg/day) was orally administered once daily in the morning for 13 days from 4 days to 16 days after cell inoculation. In gefitinib-non-treated groups (groups 1, 2 and 3 in Table 1), a water containing 1% Tween80 was orally administered once daily in a similar manner to the above. In anti-HGF neutralizing antibody-treated groups (groups 2 and 5 in Table 1), the anti-HGF neutralizing antibody (5 mg/kg/day) was intraperitoneally administered once daily immediately after gefitinib administration for 13 days from 4 days to 16 days after cell inoculation. In NK4-treated groups (groups 3 and 6 in Table 1), NK4 (9 mg/kg/day) was intraperitoneally administered in divided portions twice a day in the morning immediately after gefitinib administration and in the evening for 13 days from 4 days to 16 days after cell inoculation.
The width and length of tumor were measured every other day, and the tumor area (width×length) was calculated. […]

[2] = tested on: PC-9; assay: Effects of SU11274 on PC-9 with HGF-induced gefitinib-resistance; type: cell-based, human; conditions: HGF 20 ng/mL, gefitinib 0.3 μM, antibody 1 μg/mL, NK4 0.3 μM, SU11274 0.3 μM, 72 hours, FIG. 11
Description: PC-9 was seeded at 2×10^3 cells/well on 96-well plates and cultured for 24 hours. […] After that, 50 μL of an MTT solution (2 mg/mL, manufactured by Sigma) was added and incubation was performed at 37° C. for 2 hours. The culture media were removed, and dark blue crystals were dissolved by adding 100 μL of DMSO. The absorbance was measured with a microplate reader MTP-120 (Corona Electric Co., Ltd.) at the detection and reference wavelengths of 550 nm and 630 nm, respectively. The growth rate was shown as a relative value based on an untreated control. Each experiment was performed in triplicate and repeated thrice independently.

[3] = tested on: H1975; assay: Effects of SU11274 on H1975 with HGF-induced CL-387,785-resistance; type: cell-based, human; conditions: CL-387,785 0.3 μM, HGF 50 ng/mL, antibody 2 μg/mL, NK4 0.3 μM, 72 hours, FIG. 12
Description: H1975 was seeded at 2×10^3 cells/well on 96-well plates and cultured for 24 hours. […] The degree of cell growth was measured by the MTT method and the growth rate was calculated in the same manner as in the above (a).

[4] = tested on: H1975; assay: Effects of anti-human HGF neutralizing antibody or NK4 on H1975 with HGF-induced CL-387,785-resistance; type: cell-based; conditions: CL-387,785 0.3 μM, HGF 50 ng/mL, antibody 2 μg/mL, NK4 0.3 μM, 72 hours, FIG. 10
Description: In the same manner as in the above (a), H1975 was seeded at 2×10^3 cells/well on 96-well plates. […] The degree of cell growth was measured by the MTT method and the growth rate was calculated in the same manner as in the above (a).

B1: NK4 (protein, listed as Homo sapiens)
chain 1: MWVTKLLPALLLQHVLLHLLLLPIAIPYAEGQRKRRNTIHEFKKSAKTTLIKIDPALKIKTKKVNTADQCANRCTRNKGLPFTCKAFVFDKARKQCLWFPFNSMSSGVKKEFGHEFDLYENKDYIRNCIIGKGRSYKGTVSITKSGIKCQPWSSMIPHEHSFLPSSYRGKDLQENYCRNPRGEEGGPWCFTSNPEVRYEVCDIPQCSEVECMTCNGESYRGLMDHTESGKICQRWDHQTPHRHKFLPERYPDKGFDDNYCRNPDGQPRPWCYTLDPHTRWEYCAIKTCADNTMNDTDVPLETTECIQGQGEGYRGTVNTIWNGIPCQRWDSQYPHEHDMTPENFKCKDLRENYCRNPDGSESPWCFTTDPNIRVGYCSQIPNCDMSHGQDCYRGNGKNYMGNLSQTRSGLTCSMWDKNMEDLHRHIFWEPDASKLNENYCRNPDDDAHGPWCYTGNPLIPWDYCPISRCEGDTTPTIV
chain 2: MWVTKLLPALLLQHVLLHLLLLPIAIPYAEGQRKRRNTIHEFKKSAKTTLIKIDPALKIKTKKVNTADQCANRCTRNKGLPFTCKAFVFDKARKQCLWFPFNSMSSGVKKEFGHEFDLYENKDYIRNCIIGKGRSYKGTVSITKSGIKCQPWSSMIPHEHSYRGKDLQENYCRNPRGEEGGPWCFTSNPEVRYEVCDIPQCSEVECMTCNGESYRGLMDHTESGKICQRWDHQTPHRHKFLPERYPDKGFDDNYCRNPDGQPRPWCYTLDPHTRWEYCAIKTCADNTMNDTDVPLETTECIQGQGEGYRGTVNTIWNGIPCQRWDSQYPHEHDMTPENFKCKDLRENYCRNPDGSESPWCFTTDPNIRVGYCSQIPNCDMSHGQDCYRGNGKNYMGNLSQTRSGLTCSMWDKNMEDLHRHIFWEPDASKLNENYCRNPDDDAHGPWCYTGNPLIPWDYCPISRCEGDTTPTIV
notes: recombinant human NK4 protein; N-terminal hairpin domain and four kringle domains of HGF α chain, antagonist of HGF
B1 was tested, and the “tumor volume / tumor growth over time” value [1] was “tumor growth rate was slightly reduced”, the “inhibition of HGF-induced hyposensitivity of PC-9 to gefitinib” value [2] was “significantly inhibited” and the “inhibition of HGF-induced hyposensitivity of H1975 to CL-387,785” value [3] was “significantly inhibited”. The “inhibition of HGF-induced hyposensitivity of H1975 to CL-387,785” value [4] was “inhibited the HGF-induced hyposensitivity”.
